Laboratory results as given in patent US20180273587A1 (AILERON THERAPEUTICS, published 2018).
Positions of bridges follow the written chain, without caps; N, C: chain ends. Non-standard residues stand in square brackets, D forms with d. Phe(4-F) = N[C@@H](Cc1ccc(F)cc1)C(=O)O; R8 = C=CCCCCCC[C@@](C)(N)C(=O)O; Cit = NC(=O)NCCC[C@H](N)C(=O)O; αMeD = C[C@](N)(CC(=O)O)C(=O)O; αMeL = CC(C)C[C@](C)(N)C(=O)O; hLeu = CC(C)CC[C@H](N)C(=O)O; S5 = C=CCCC[C@](C)(N)C(=O)O; Ac5c = NC1(C(=O)O)CCCC1; Aib = CC(C)(N)C(=O)O

B1: SEQ ID NO: 1723 (peptide)
peptide: Ac-[Aib]WIAAALR[R8]IGDAFN[S5]YYA-NH2
modifications: staple 9-16
SMILES: CC[C@H](C)[C@H](NC(=O)[C@H](Cc1c[nH]c2ccccc12)NC(=O)C(C)(C)NC(C)=O)C(=O)N[C@@H](C)C(=O)N[C@@H](C)C(=O)N[C@@H](C)C(=O)N[C@@H](CC(C)C)C(=O)N[C@@H](CCCNC(=N)N)C(=O)N[C@]1(C)CCCCCCC=CCCC[C@@](C)(C(=O)N[C@@H](Cc2ccc(O)cc2)C(=O)N[C@@H](Cc2ccc(O)cc2)C(=O)N[C@@H](C)C(N)=O)NC(=O)[C@H](CC(N)=O)NC(=O)[C@H](Cc2ccccc2)NC(=O)[C@H](C)NC(=O)[C@H](CC(=O)O)NC(=O)CNC(=O)[C@H]([C@@H](C)CC)NC1=O
notes: also called Ac-AibWIAAALR$r8IGDAFN$YYA-NH2
B2: SEQ ID NO: 1655 (peptide)
peptide: IWIAQALXAIGDAFNAYYA
modifications: Ac- at N-terminus; -NH2 at C-terminus; $r8 at 9 and $ at 16 joined by all-carbon crosslinker; Cit (citrulline) at 8
B3: SEQ ID NO: 1715 (peptide)
peptide: Ac-IW[Ac5c]AQALR[R8]IGDAFN[S5]YYA-NH2
modifications: staple 9-16
SMILES: CC[C@H](C)[C@H](NC(C)=O)C(=O)N[C@@H](Cc1c[nH]c2ccccc12)C(=O)NC1(C(=O)N[C@@H](C)C(=O)N[C@@H](CCC(N)=O)C(=O)N[C@@H](C)C(=O)N[C@@H](CC(C)C)C(=O)N[C@@H](CCCNC(=N)N)C(=O)N[C@]2(C)CCCCCCC=CCCC[C@@](C)(C(=O)N[C@@H](Cc3ccc(O)cc3)C(=O)N[C@@H](Cc3ccc(O)cc3)C(=O)N[C@@H](C)C(N)=O)NC(=O)[C@H](CC(N)=O)NC(=O)[C@H](Cc3ccccc3)NC(=O)[C@H](C)NC(=O)[C@H](CC(=O)O)NC(=O)CNC(=O)[C@H]([C@@H](C)CC)NC2=O)CCCC1
notes: also called Ac-IWAc5cAQALR$r8IGDAFN$YYA-NH2
B4: SEQ ID NO: 1776 (peptide)
peptide: Ac-IWIAQALR[R8][hLeu]GDAFN[S5][Phe(4-F)]YA-NH2
modifications: staple 9-16
SMILES: CC[C@H](C)[C@H](NC(C)=O)C(=O)N[C@@H](Cc1c[nH]c2ccccc12)C(=O)N[C@H](C(=O)N[C@@H](C)C(=O)N[C@@H](CCC(N)=O)C(=O)N[C@@H](C)C(=O)N[C@@H](CC(C)C)C(=O)N[C@@H](CCCNC(=N)N)C(=O)N[C@]1(C)CCCCCCC=CCCC[C@@](C)(C(=O)N[C@@H](Cc2ccc(F)cc2)C(=O)N[C@@H](Cc2ccc(O)cc2)C(=O)N[C@@H](C)C(N)=O)NC(=O)[C@H](CC(N)=O)NC(=O)[C@H](Cc2ccccc2)NC(=O)[C@H](C)NC(=O)[C@H](CC(=O)O)NC(=O)CNC(=O)[C@H](CCC(C)C)NC1=O)[C@@H](C)CC
B5: SEQ ID NO: 1777 (peptide)
peptide: Ac-IWIAQALR[R8][hLeu]GDAFN[S5]Y[Phe(4-F)]A-NH2
modifications: staple 9-16
SMILES: CC[C@H](C)[C@H](NC(C)=O)C(=O)N[C@@H](Cc1c[nH]c2ccccc12)C(=O)N[C@H](C(=O)N[C@@H](C)C(=O)N[C@@H](CCC(N)=O)C(=O)N[C@@H](C)C(=O)N[C@@H](CC(C)C)C(=O)N[C@@H](CCCNC(=N)N)C(=O)N[C@]1(C)CCCCCCC=CCCC[C@@](C)(C(=O)N[C@@H](Cc2ccc(O)cc2)C(=O)N[C@@H](Cc2ccc(F)cc2)C(=O)N[C@@H](C)C(N)=O)NC(=O)[C@H](CC(N)=O)NC(=O)[C@H](Cc2ccccc2)NC(=O)[C@H](C)NC(=O)[C@H](CC(=O)O)NC(=O)CNC(=O)[C@H](CCC(C)C)NC1=O)[C@@H](C)CC
B6: SEQ ID NO: 1778 (peptide)
peptide: Ac-IWIAQALR[R8][hLeu]GDAFN[S5][Phe(4-F)][Phe(4-F)]A-NH2
modifications: staple 9-16
SMILES: CC[C@H](C)[C@H](NC(C)=O)C(=O)N[C@@H](Cc1c[nH]c2ccccc12)C(=O)N[C@H](C(=O)N[C@@H](C)C(=O)N[C@@H](CCC(N)=O)C(=O)N[C@@H](C)C(=O)N[C@@H](CC(C)C)C(=O)N[C@@H](CCCNC(=N)N)C(=O)N[C@]1(C)CCCCCCC=CCCC[C@@](C)(C(=O)N[C@@H](Cc2ccc(F)cc2)C(=O)N[C@@H](Cc2ccc(F)cc2)C(=O)N[C@@H](C)C(N)=O)NC(=O)[C@H](CC(N)=O)NC(=O)[C@H](Cc2ccccc2)NC(=O)[C@H](C)NC(=O)[C@H](CC(=O)O)NC(=O)CNC(=O)[C@H](CCC(C)C)NC1=O)[C@@H](C)CC
B7: SEQ ID NO: 1779 (peptide)
peptide: Ac-AWIAAALR[R8][hLeu]GDAFN[S5]Y[Phe(4-F)]A-NH2
modifications: staple 9-16
SMILES: CC[C@H](C)[C@H](NC(=O)[C@H](Cc1c[nH]c2ccccc12)NC(=O)[C@H](C)NC(C)=O)C(=O)N[C@@H](C)C(=O)N[C@@H](C)C(=O)N[C@@H](C)C(=O)N[C@@H](CC(C)C)C(=O)N[C@@H](CCCNC(=N)N)C(=O)N[C@]1(C)CCCCCCC=CCCC[C@@](C)(C(=O)N[C@@H](Cc2ccc(O)cc2)C(=O)N[C@@H](Cc2ccc(F)cc2)C(=O)N[C@@H](C)C(N)=O)NC(=O)[C@H](CC(N)=O)NC(=O)[C@H](Cc2ccccc2)NC(=O)[C@H](C)NC(=O)[C@H](CC(=O)O)NC(=O)CNC(=O)[C@H](CCC(C)C)NC1=O
B8: SEQ ID NO: 1767 (peptide)
peptide: Ac-IWIAQA[αMeL]R[R8]IGDAFN[S5]YYA-NH2
modifications: staple 9-16
SMILES: CC[C@H](C)[C@H](NC(C)=O)C(=O)N[C@@H](Cc1c[nH]c2ccccc12)C(=O)N[C@H](C(=O)N[C@@H](C)C(=O)N[C@@H](CCC(N)=O)C(=O)N[C@@H](C)C(=O)N[C@@](C)(CC(C)C)C(=O)N[C@@H](CCCNC(=N)N)C(=O)N[C@]1(C)CCCCCCC=CCCC[C@@](C)(C(=O)N[C@@H](Cc2ccc(O)cc2)C(=O)N[C@@H](Cc2ccc(O)cc2)C(=O)N[C@@H](C)C(N)=O)NC(=O)[C@H](CC(N)=O)NC(=O)[C@H](Cc2ccccc2)NC(=O)[C@H](C)NC(=O)[C@H](CC(=O)O)NC(=O)CNC(=O)[C@H]([C@@H](C)CC)NC1=O)[C@@H](C)CC
notes: Row prints Ac-IWIAQAAmLR$r8IGDAFN$YYA-NH2
B9: SEQ ID NO: 1774 (peptide)
peptide: Ac-IWIAQAL[Cit][R8]IGDAVN[S5]YYA-NH2
modifications: staple 9-16
SMILES: CC[C@H](C)[C@H](NC(C)=O)C(=O)N[C@@H](Cc1c[nH]c2ccccc12)C(=O)N[C@H](C(=O)N[C@@H](C)C(=O)N[C@@H](CCC(N)=O)C(=O)N[C@@H](C)C(=O)N[C@@H](CC(C)C)C(=O)N[C@@H](CCCNC(N)=O)C(=O)N[C@]1(C)CCCCCCC=CCCC[C@@](C)(C(=O)N[C@@H](Cc2ccc(O)cc2)C(=O)N[C@@H](Cc2ccc(O)cc2)C(=O)N[C@@H](C)C(N)=O)NC(=O)[C@H](CC(N)=O)NC(=O)[C@H](C(C)C)NC(=O)[C@H](C)NC(=O)[C@H](CC(=O)O)NC(=O)CNC(=O)[C@H]([C@@H](C)CC)NC1=O)[C@@H](C)CC
B10: SEQ ID NO: 1773 (peptide)
peptide: Ac-IWIAQAL[Cit][R8]IGDAAN[S5]YYA-NH2
modifications: staple 9-16
SMILES: CC[C@H](C)[C@H](NC(C)=O)C(=O)N[C@@H](Cc1c[nH]c2ccccc12)C(=O)N[C@H](C(=O)N[C@@H](C)C(=O)N[C@@H](CCC(N)=O)C(=O)N[C@@H](C)C(=O)N[C@@H](CC(C)C)C(=O)N[C@@H](CCCNC(N)=O)C(=O)N[C@]1(C)CCCCCCC=CCCC[C@@](C)(C(=O)N[C@@H](Cc2ccc(O)cc2)C(=O)N[C@@H](Cc2ccc(O)cc2)C(=O)N[C@@H](C)C(N)=O)NC(=O)[C@H](CC(N)=O)NC(=O)[C@H](C)NC(=O)[C@H](C)NC(=O)[C@H](CC(=O)O)NC(=O)CNC(=O)[C@H]([C@@H](C)CC)NC1=O)[C@@H](C)CC
B11: SEQ ID NO: 1768 (peptide)
peptide: Ac-IWIAQALR[R8]IG[αMeD]AFN[S5]YYA-NH2
modifications: staple 9-16
SMILES: CC[C@H](C)[C@H](NC(C)=O)C(=O)N[C@@H](Cc1c[nH]c2ccccc12)C(=O)N[C@H](C(=O)N[C@@H](C)C(=O)N[C@@H](CCC(N)=O)C(=O)N[C@@H](C)C(=O)N[C@@H](CC(C)C)C(=O)N[C@@H](CCCNC(=N)N)C(=O)N[C@]1(C)CCCCCCC=CCCC[C@@](C)(C(=O)N[C@@H](Cc2ccc(O)cc2)C(=O)N[C@@H](Cc2ccc(O)cc2)C(=O)N[C@@H](C)C(N)=O)NC(=O)[C@H](CC(N)=O)NC(=O)[C@H](Cc2ccccc2)NC(=O)[C@H](C)NC(=O)[C@](C)(CC(=O)O)NC(=O)CNC(=O)[C@H]([C@@H](C)CC)NC1=O)[C@@H](C)CC
B12: SEQ ID NO: 1771 (peptide)
peptide: Ac-IWIAQAA[Cit][R8]IGDAFN[S5]YYA-NH2
modifications: staple 9-16
SMILES: CC[C@H](C)[C@H](NC(C)=O)C(=O)N[C@@H](Cc1c[nH]c2ccccc12)C(=O)N[C@H](C(=O)N[C@@H](C)C(=O)N[C@@H](CCC(N)=O)C(=O)N[C@@H](C)C(=O)N[C@@H](C)C(=O)N[C@@H](CCCNC(N)=O)C(=O)N[C@]1(C)CCCCCCC=CCCC[C@@](C)(C(=O)N[C@@H](Cc2ccc(O)cc2)C(=O)N[C@@H](Cc2ccc(O)cc2)C(=O)N[C@@H](C)C(N)=O)NC(=O)[C@H](CC(N)=O)NC(=O)[C@H](Cc2ccccc2)NC(=O)[C@H](C)NC(=O)[C@H](CC(=O)O)NC(=O)CNC(=O)[C@H]([C@@H](C)CC)NC1=O)[C@@H](C)CC

Molecular target: T1, MCL-1 (UniProt Q07820 172-327, limits assumed)
T1 construct: also called Myeloid cell leukemia 1
Assay: Ki table, method not stated
T1 sequence (Q07820 172-327 limits assumed): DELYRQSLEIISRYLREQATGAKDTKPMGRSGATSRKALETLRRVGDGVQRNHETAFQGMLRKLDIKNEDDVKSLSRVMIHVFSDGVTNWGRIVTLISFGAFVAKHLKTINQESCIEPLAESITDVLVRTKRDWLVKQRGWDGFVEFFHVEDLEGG

Ki | Binder
4 nM | B1
7.5 nM | B2
8.9 nM | B3

Molecular target: BCL-XL (UniProt Q07817 1-209)
Assay: Ki table, method not stated
Target sequence in this assay (Q07817 1-209): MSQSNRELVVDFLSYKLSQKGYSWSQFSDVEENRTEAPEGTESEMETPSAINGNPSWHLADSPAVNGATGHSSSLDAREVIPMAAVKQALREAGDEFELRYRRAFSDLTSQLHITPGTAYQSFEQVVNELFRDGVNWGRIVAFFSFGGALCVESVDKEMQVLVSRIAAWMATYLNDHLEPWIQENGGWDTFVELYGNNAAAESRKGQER

Ki | Binder
20.3 nM | B1
109 nM | B2
8.4 nM | B3

Molecular target: BCL-2 (UniProt P10415 1-217, limits assumed)
Assay: Ki table, method not stated

BCL-2, sequence (P10415 1-217 limits assumed): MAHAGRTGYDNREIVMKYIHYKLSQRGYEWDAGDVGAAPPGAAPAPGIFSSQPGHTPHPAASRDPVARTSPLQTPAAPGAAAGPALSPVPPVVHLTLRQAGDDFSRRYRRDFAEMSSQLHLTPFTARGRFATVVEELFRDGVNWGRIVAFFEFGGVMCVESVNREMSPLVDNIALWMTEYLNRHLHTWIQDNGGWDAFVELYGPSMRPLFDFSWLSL

Ki | Binder
56 nM | B1
212 nM | B2
68.2 nM | B3

Molecular target: T2, MCL-1 (UniProt Q07820 172-327, limits assumed)
T2 construct: Target of the Ki columns; also called Myeloid cell leukemia 1
Assay: Ki; method not stated; unit not printed (nM per Table 6)
T2 sequence (Q07820 172-327 limits assumed): as the sequence (Q07820 172-327 limits assumed) above

Ki | Binder
58 nM | B4
27 nM | B5
127 nM | B6
52 nM | B7
86.6 nM | B8
0.8 nM | B9
39.5 nM | B10

Molecular target: T3, BCL-XL (UniProt Q07817 1-209)
T3 construct: Target of the Ki columns
Assay: as above
T3 sequence (Q07817 1-209): as the sequence (Q07817 1-209) above

Ki | Binder
206 nM | B11
43 nM | B4
13 nM | B5
121 nM | B6
37 nM | B7
85 nM | B12
